# Data as given in patent publication US20140348819A1, “Methods of Treating Cancer” (Dana-Farber Cancer Institute, Inc., priority 2011, published 2014).
# B1: BDNF (protein, UniProt P23560 19-247, looked up)
# Neurotrophic factor BDNF …: APMKEANIRGQGGLAYPGVRTHGTLESVNGPKAGSRGLTSLADTFEHVIEELLDEDQKVRPNEENNKDADLYTSRVMLSSQVPLEPPLLFLLEEYKNYLDAANMSMRVRRHSDPARRGELSVCDSISEWVTAADKKTAVDMSGGTVTVLEKVPVSKGQLKQYFYETKCNPMGYTKEGCRGIDKRHWNSQCRTTQSYVRALTMDSKKRIGWRFIRIDTSCVCTLTIKRGR
# Tested on: six V600E BRAF melanoma cell lines
# Experiment: Screening of recombinant RTK ligands for ability to confer resistance to BRAFi (PLX4720) or MEKi (PD184352) (Table 4)
# Format: cell-based, human
# Set-up: ability of recombinant RTK ligand to confer resistance / ability of recombinant RTK ligand to confer resistance (screening value): scale not given here
# How it was run: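 Resistance to BRAFi (PLX4720) or MEKi (PD184352) was tested in six V600E BRAF melanoma lines given one of 22 recombinant RTK ligands. For a subset of RTKs, activation was checked by high-throughput tyrosine kinase phosphorylation profiling and western blot.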
molecule,measurement,setting,value
B1,ability of recombinant RTK ligand to confer resistance,"A2058, PD184352 - 1 uM, ligand 0.4 ng/ml",0.99
same,ability of recombinant RTK ligand to confer resistance,"A2058, PD184352 - 1 uM, ligand 1.6 ng/ml",0.97
same,ability of recombinant RTK ligand to confer resistance,"A2058, PD184352 - 1 uM, ligand 6.25 ng/ml",0.94
same,ability of recombinant RTK ligand to confer resistance,"A2058, PD184352 - 1 uM, ligand 25 ng/ml",1.03
same,ability of recombinant RTK ligand to confer resistance,"A2058, PD184352 - 1 uM, ligand 100 ng/ml",1.10
same,ability of recombinant RTK ligand to confer resistance,"A2058, PLX4720 - 2 uM, ligand 0.4 ng/ml",1.00
same,ability of recombinant RTK ligand to confer resistance,"A2058, PLX4720 - 2 uM, ligand 1.6 ng/ml",0.95
same,ability of recombinant RTK ligand to confer resistance,"A2058, PLX4720 - 2 uM, ligand 6.25 ng/ml",0.95
same,ability of recombinant RTK ligand to confer resistance,"A2058, PLX4720 - 2 uM, ligand 25 ng/ml",0.98
same,ability of recombinant RTK ligand to confer resistance,"A2058, PLX4720 - 2 uM, ligand 100 ng/ml",1.15
same,ability of recombinant RTK ligand to confer resistance,"C32, PD184352 - 1 uM, ligand 0.4 ng/ml",1.03
same,ability of recombinant RTK ligand to confer resistance,"C32, PD184352 - 1 uM, ligand 1.6 ng/ml",1.01
same,ability of recombinant RTK ligand to confer resistance,"C32, PD184352 - 1 uM, ligand 6.25 ng/ml",1.06
same,ability of recombinant RTK ligand to confer resistance,"C32, PD184352 - 1 uM, ligand 25 ng/ml",1.03
same,ability of recombinant RTK ligand to confer resistance,"C32, PD184352 - 1 uM, ligand 100 ng/ml",0.95
same,ability of recombinant RTK ligand to confer resistance,"C32, PLX4720 - 2 uM, ligand 0.4 ng/ml",1.09
same,ability of recombinant RTK ligand to confer resistance,"C32, PLX4720 - 2 uM, ligand 1.6 ng/ml",0.99
same,ability of recombinant RTK ligand to confer resistance,"C32, PLX4720 - 2 uM, ligand 6.25 ng/ml",1.02
same,ability of recombinant RTK ligand to confer resistance,"C32, PLX4720 - 2 uM, ligand 25 ng/ml",1.01
same,ability of recombinant RTK ligand to confer resistance,"C32, PLX4720 - 2 uM, ligand 100 ng/ml",0.94
same,ability of recombinant RTK ligand to confer resistance,"Colo 829, PD184352 - 1 uM, ligand 0.4 ng/ml",1.03
same,ability of recombinant RTK ligand to confer resistance,"Colo 829, PD184352 - 1 uM, ligand 1.6 ng/ml",0.99
same,ability of recombinant RTK ligand to confer resistance,"Colo 829, PD184352 - 1 uM, ligand 6.25 ng/ml",0.98
same,ability of recombinant RTK ligand to confer resistance,"Colo 829, PD184352 - 1 uM, ligand 25 ng/ml",0.98
same,ability of recombinant RTK ligand to confer resistance,"Colo 829, PD184352 - 1 uM, ligand 100 ng/ml",0.93
same,ability of recombinant RTK ligand to confer resistance,"Colo 829, PLX4720 - 2 uM, ligand 0.4 ng/ml",1.02
same,ability of recombinant RTK ligand to confer resistance,"Colo 829, PLX4720 - 2 uM, ligand 1.6 ng/ml",1.00
same,ability of recombinant RTK ligand to confer resistance,"Colo 829, PLX4720 - 2 uM, ligand 6.25 ng/ml",0.96
same,ability of recombinant RTK ligand to confer resistance,"Colo 829, PLX4720 - 2 uM, ligand 25 ng/ml",0.95
same,ability of recombinant RTK ligand to confer resistance,"Colo 829, PLX4720 - 2 uM, ligand 100 ng/ml",0.94
same,ability of recombinant RTK ligand to confer resistance,"G-361, PD184352 - 1 uM, ligand 0.4 ng/ml",1.09
same,ability of recombinant RTK ligand to confer resistance,"G-361, PD184352 - 1 uM, ligand 1.6 ng/ml",0.95
same,ability of recombinant RTK ligand to confer resistance,"G-361, PD184352 - 1 uM, ligand 6.25 ng/ml",1.03
same,ability of recombinant RTK ligand to confer resistance,"G-361, PD184352 - 1 uM, ligand 25 ng/ml",0.91
same,ability of recombinant RTK ligand to confer resistance,"G-361, PD184352 - 1 uM, ligand 100 ng/ml",0.91
same,ability of recombinant RTK ligand to confer resistance,"G-361, PLX4720 - 2 uM, ligand 0.4 ng/ml",0.98
same,ability of recombinant RTK ligand to confer resistance,"G-361, PLX4720 - 2 uM, ligand 1.6 ng/ml",0.82
same,ability of recombinant RTK ligand to confer resistance,"G-361, PLX4720 - 2 uM, ligand 6.25 ng/ml",1.04
same,ability of recombinant RTK ligand to confer resistance,"G-361, PLX4720 - 2 uM, ligand 25 ng/ml",0.89
same,ability of recombinant RTK ligand to confer resistance,"G-361, PLX4720 - 2 uM, ligand 100 ng/ml",0.87
same,ability of recombinant RTK ligand to confer resistance,"SK-MEL-5, PD184352 - 1 uM, ligand 0.4 ng/ml",1.01
same,ability of recombinant RTK ligand to confer resistance,"SK-MEL-5, PD184352 - 1 uM, ligand 1.6 ng/ml",0.97
same,ability of recombinant RTK ligand to confer resistance,"SK-MEL-5, PD184352 - 1 uM, ligand 6.25 ng/ml",1.01
same,ability of recombinant RTK ligand to confer resistance,"SK-MEL-5, PD184352 - 1 uM, ligand 25 ng/ml",0.96
same,ability of recombinant RTK ligand to confer resistance,"SK-MEL-5, PD184352 - 1 uM, ligand 100 ng/ml",0.97
same,ability of recombinant RTK ligand to confer resistance,"SK-MEL-5, PLX4720 - 2 uM, ligand 0.4 ng/ml",1.07
same,ability of recombinant RTK ligand to confer resistance,"SK-MEL-5, PLX4720 - 2 uM, ligand 1.6 ng/ml",1.02
same,ability of recombinant RTK ligand to confer resistance,"SK-MEL-5, PLX4720 - 2 uM, ligand 6.25 ng/ml",1.07
same,ability of recombinant RTK ligand to confer resistance,"SK-MEL-5, PLX4720 - 2 uM, ligand 25 ng/ml",1.08
same,ability of recombinant RTK ligand to confer resistance,"SK-MEL-5, PLX4720 - 2 uM, ligand 100 ng/ml",1.04
same,ability of recombinant RTK ligand to confer resistance,"SK-MEL-28, PD184352 - 1 uM, ligand 0.4 ng/ml",1.04
same,ability of recombinant RTK ligand to confer resistance,"SK-MEL-28, PD184352 - 1 uM, ligand 1.6 ng/ml",1.04
same,ability of recombinant RTK ligand to confer resistance,"SK-MEL-28, PD184352 - 1 uM, ligand 6.25 ng/ml",0.91
same,ability of recombinant RTK ligand to confer resistance,"SK-MEL-28, PD184352 - 1 uM, ligand 25 ng/ml",0.97
same,ability of recombinant RTK ligand to confer resistance,"SK-MEL-28, PD184352 - 1 uM, ligand 100 ng/ml",1.07
same,ability of recombinant RTK ligand to confer resistance,"SK-MEL-28, PLX4720 - 2 uM, ligand 0.4 ng/ml",0.97
same,ability of recombinant RTK ligand to confer resistance,"SK-MEL-28, PLX4720 - 2 uM, ligand 1.6 ng/ml",1.12
same,ability of recombinant RTK ligand to confer resistance,"SK-MEL-28, PLX4720 - 2 uM, ligand 6.25 ng/ml",0.99
same,ability of recombinant RTK ligand to confer resistance,"SK-MEL-28, PLX4720 - 2 uM, ligand 25 ng/ml",1.08
same,ability of recombinant RTK ligand to confer resistance,"SK-MEL-28, PLX4720 - 2 uM, ligand 100 ng/ml",0.99
